Assay results as given in patent publication US20210070872A1 (AGENUS, published 2021).

T1: V1M cynomolgus GITR on 1624-5 cells (cynomolgus monkey, UniProt Q9Y5U5 26-241 (human entry))
T1 chain: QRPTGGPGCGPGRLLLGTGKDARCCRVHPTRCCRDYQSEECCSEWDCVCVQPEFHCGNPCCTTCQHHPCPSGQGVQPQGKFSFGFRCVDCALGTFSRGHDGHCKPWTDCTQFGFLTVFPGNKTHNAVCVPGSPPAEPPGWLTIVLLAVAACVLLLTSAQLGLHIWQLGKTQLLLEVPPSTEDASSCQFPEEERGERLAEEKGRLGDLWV

T2: V1M/Q62P/S63G cynomolgus GITR on 1624-5 cells (cynomolgus monkey, UniProt Q9Y5U5 26-241 (human entry))
T2 construct: also called mutant cynomolgus GITR V1M/Q62P/S63G
T2 chain: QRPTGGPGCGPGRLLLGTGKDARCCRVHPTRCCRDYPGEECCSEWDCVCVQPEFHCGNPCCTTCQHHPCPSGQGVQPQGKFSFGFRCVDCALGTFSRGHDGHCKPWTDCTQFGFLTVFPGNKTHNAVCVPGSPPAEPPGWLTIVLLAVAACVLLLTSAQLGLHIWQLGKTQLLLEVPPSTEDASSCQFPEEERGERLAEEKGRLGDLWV

T3: human GITR D60A mutant on 1624-5 cells (human, UniProt Q9Y5U5 26-241)
T3 chain: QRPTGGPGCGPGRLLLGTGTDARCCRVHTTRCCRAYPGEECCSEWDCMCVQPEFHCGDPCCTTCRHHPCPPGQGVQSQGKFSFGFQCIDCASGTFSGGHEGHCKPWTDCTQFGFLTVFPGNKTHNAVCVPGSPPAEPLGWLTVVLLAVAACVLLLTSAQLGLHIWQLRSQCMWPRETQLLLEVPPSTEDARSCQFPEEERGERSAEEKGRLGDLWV

T4: human GITR G63A mutant on 1624-5 cells (human, UniProt Q9Y5U5 26-241)
T4 chain: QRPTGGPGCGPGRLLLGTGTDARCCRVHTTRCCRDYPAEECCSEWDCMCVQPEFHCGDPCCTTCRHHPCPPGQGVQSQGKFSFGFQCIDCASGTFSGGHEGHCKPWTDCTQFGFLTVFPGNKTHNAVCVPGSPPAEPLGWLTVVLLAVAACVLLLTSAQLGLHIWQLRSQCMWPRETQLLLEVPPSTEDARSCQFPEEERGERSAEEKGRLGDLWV

T5: GITR antigen (R&D systems, di-sulfide-linked homodimer; 689-GR) (human, UniProt Q9Y5U5 26-161)
T5 construct: Bought
T5 sequence: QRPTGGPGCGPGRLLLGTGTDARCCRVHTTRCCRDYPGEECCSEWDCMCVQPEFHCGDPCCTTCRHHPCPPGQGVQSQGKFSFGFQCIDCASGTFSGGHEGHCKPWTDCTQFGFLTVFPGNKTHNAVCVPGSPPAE


Key:
[1] = molecular target: T1, V1M cynomolgus GITR on 1624-5 cells; test: flow cytometry on 1624-5 cells
[2] = molecular target: T2, V1M/Q62P/S63G cynomolgus GITR on 1624-5 …; test: flow cytometry on 1624-5 cells, 2 µg/ml
[3] = molecular target: T3, human GITR D60A mutant on 1624-5 cells; test: flow cytometry on 1624-5 cells, 2 µg/ml, MFI ratio to polyclonal antibody
Procedure: (§1) An average MFI ratio (“AMFI ratio”) was calculated based on the individual MFI ratios for all the mutants. FIG. 34A is a table summarizing the binding of Hum231#2, three germline variants (pab1967, pab1975 and pab1979) and the reference antibody m6C8 to1624-5 cells expressing human GITR alanine mutants. An individual MFI ratio that is above 60% of the AMFI ratio is considered to indicate similar binding, after normalization, of that of the polyclonal antibody and is represented by “+” in FIG. 34A. An individual MFI ratio that is between 30% and 60% of the AMFI ratio is represented by “+/−” in FIG. 34A. An individual MFI ratio that is below 30% of the AMFI ratio is represented by “−” in FIG. 34A.
(§2) All the mean fluorescence intensity (MFI) values were calculated as the mean of two measurements. […] The percentage of binding of an antibody to the GITR alanine mutants relative to the wild type GITR was calculated by dividing a particular MFI ratio for the GITR alanine mutants by the corresponding MFI ratio for the wild type (e.g., dividing MFI ratio_{Hum231#2, D60A} by MFI ratio_{Hum231#2, WT}). The percentage of reduction in binding was determined by calculating, e.g., 100%*(1−(MFI ratio_{Hum231#2, D60A}/MFI ratio_{Hum231#2, WT})).

[4] = molecular target: T4, human GITR G63A mutant on 1624-5 cells; test: as above
Procedure: as §1, §2

[5] = molecular target: T5, GITR antigen (R&D systems, …); test: SPR (BIAcore T100/T200), antibody captured via anti-human Fab, GITR antigen 40/10/2.5 nM, 1:1 model
Procedure: All interactions were analyzed at 25° C. using 1× DPBS (PAA, H15-002) plus P20 (0.05%, Pierce, 28320) as running buffer. Anti-GITR antibodies (8 μg/ml in running buffer) were captured to the chip surface of a CM5 sensor chip (GE Healthcare, Series S CM5, BR-1005-30) via an immobilized anti-human Fab antibody (GE Healthcare, Fab Capture Kit, 28958325). To detect unspecific interactions of the GITR antigen, antibody capture was only performed in flow cell 2, whereas in flow cell 1 only the capturing antibody was immobilized. In addition, an unrelated antibody (anti-IL-1β; SK48E26; International Publication No. WO 95/001997) was used to assess specificity of GITR binding. After capture of the anti-GITR antibodies GITR antigen (R&D systems, di-sulfide-linked homodimer; 689-GR) was run through both flow cells in different amounts (40 nM, 10 nM and 2.5 nM) for each antibody. Also a blank curve (running buffer only) was included in each run. Association was run for 90 s and dissociation for 600 s with a flow rate of 10 μl/min. After each run a regeneration step was performed with 10 mM Glycine pH2.0 (GE Healthcare, BR-1003-55) for 60 s with 30 μl/min. Binding curves were evaluated using BIAcore® T200 evaluation software version 2.0.1 applying a Langmuir 1:1 model with global fit of Rmax.

Row | binding result [1] | binding result [2] | percent reduction in binding relative to wild type human GITR [3] | percent reduction in binding relative to wild type human GITR [4] | Kd [5] | koff [5] | kon [5] | Binder
1 | no binding (tested: 2 µg/ml) | binds | 82% | 37% | 2.02 nM | 0.000712 s⁻¹ | 352000 M⁻¹ s⁻¹ | chimeric parental 231-32-15 antibody (antibody, human IgG1, V domains shown, Murine variable regions on human IgG1 (CH1-2-3) and human kappa constant regions; T109S (Kabat) in the light chain constant domain) VH: QVQLLQSGTELVRPGVSVKISCKGSGYTFTDYAMYWVKQSHAKSLEWIGVIRTYSGDVTYNQKFKDKATMTVDKSSSIAYMELARLSSEDSAIYYCAKSGTVRGFAYWGQGTLVTVSS VL: DIVMTQSPSSLTVTAGEKVIMSCKSSQSLLNSGNQKNYLTWYQQKPGQPPKLLIYWASTRESGVPDRFTGSGSGTDFTLTISSVQAEDLAVYHCQNDYSYPYTFGGGTKLEIK
2 | no binding (tested: 2 µg/ml) | binds | 88% | 59% | 0.629 nM | 0.00178 s⁻¹ | 2.83e+06 M⁻¹ s⁻¹ | Hum231#2 (antibody, human IgG1, V domains shown, Human IgG1 with T109S (Kabat) in the light chain constant domain; also called humanized variant Hum231#2 (IGHV1-2*02 and IGK4-1*01)) VH: QVQLVQSGAEVKKPGASVKVSCKGSGYTFTDYAMYWVRQAPGQGLEWIGVIRTYSGDVTYNQKFKDRATMTVDKSISTAYMELSRLRSDDTAVYYCAKSGTVRGFAYWGQGTLVTVSS VL: DIVMTQSPDSLAVSLGERATINCKSSQSLLNSGNQKNYLTWYQQKPGQPPKLLIYWASTRESGVPDRFSGSGSGTDFTLTISSLQAEDVAVYHCQNDYSYPYTFGQGTKLEIKR
